Tests used:
[1] = target: T1, human ST2L, full length, on cells (human, UniProt Q01638 19-556); test: cell-based or functional assay
T1 sequence: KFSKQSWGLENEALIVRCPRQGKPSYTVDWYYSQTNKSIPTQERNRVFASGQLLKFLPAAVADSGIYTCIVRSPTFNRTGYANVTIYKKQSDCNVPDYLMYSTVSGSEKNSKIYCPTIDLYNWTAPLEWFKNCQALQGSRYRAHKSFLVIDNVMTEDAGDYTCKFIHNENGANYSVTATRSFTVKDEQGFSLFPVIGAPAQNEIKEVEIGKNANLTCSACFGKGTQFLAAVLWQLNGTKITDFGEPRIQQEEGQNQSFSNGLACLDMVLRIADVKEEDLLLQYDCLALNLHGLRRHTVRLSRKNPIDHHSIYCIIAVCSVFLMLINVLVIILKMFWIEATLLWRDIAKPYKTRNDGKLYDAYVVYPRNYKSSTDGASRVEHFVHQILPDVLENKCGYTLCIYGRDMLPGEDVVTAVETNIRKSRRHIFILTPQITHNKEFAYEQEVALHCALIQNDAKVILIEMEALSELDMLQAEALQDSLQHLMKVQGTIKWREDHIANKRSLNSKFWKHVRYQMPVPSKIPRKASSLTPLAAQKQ

[2] = target: T2, human ST2L extracellular domain with C-terminal His6 tag (human, UniProt Q01638 19-328); test: SPR, mAb captured, ST2L-ECD in solution
T2 construct: also called huST2L-ECD; ST2L-ECD
T2 sequence: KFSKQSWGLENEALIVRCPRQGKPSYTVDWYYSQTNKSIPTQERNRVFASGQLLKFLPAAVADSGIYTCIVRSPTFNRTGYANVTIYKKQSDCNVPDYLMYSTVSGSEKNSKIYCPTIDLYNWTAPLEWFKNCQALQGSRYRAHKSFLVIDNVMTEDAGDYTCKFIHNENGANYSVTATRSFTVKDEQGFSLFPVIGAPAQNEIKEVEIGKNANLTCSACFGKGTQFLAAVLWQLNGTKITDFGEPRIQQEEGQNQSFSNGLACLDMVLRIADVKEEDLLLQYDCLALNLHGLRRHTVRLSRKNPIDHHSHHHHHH

[3] = target: T3, cynomolgus (Macaca fascicularis) ST2L extracellular domain with C-terminal His6 tag (Macaca fascicularis (cynomolgus), UniProt Q01638 19-321 (human entry)); test: SPR, mAb captured, ST2L-ECD in solution
T3 construct: also called cyno ST2L-ECD; cynoST2L-ECD
T3 chain: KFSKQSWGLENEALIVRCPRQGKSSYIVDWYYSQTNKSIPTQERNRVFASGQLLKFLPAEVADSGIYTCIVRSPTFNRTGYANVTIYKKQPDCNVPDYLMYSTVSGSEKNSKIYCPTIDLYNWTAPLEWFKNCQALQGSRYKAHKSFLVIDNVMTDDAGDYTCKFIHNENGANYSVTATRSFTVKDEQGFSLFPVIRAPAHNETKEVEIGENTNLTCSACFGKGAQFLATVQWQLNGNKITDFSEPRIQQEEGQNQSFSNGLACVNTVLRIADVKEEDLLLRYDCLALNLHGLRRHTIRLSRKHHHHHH

[4] = target: T4, HH-ST2L (human ST2L Domains I and II), wild type (human, UniProt Q01638 19-205); test: ProteOn SPR, mAb captured by anti-Fc, ST2L-D1D2 injected
T4 construct: also called ST2L-D1D2
T4 sequence: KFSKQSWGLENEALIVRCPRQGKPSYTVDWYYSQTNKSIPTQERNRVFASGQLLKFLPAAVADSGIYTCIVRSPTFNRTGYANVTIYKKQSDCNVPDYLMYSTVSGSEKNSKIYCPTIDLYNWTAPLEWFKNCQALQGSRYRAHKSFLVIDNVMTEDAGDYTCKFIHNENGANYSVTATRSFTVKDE
Experimental: (§1) Binding studies were performed using the ProteOn XPR36 Protein Interaction Array system (Bio-Rad) (Bravman T, et al. Anal Biochem 358:281-288, 2006). […] Individual anti-ST2L mAb was then captured by flowing (1 μg/mL) antibody solution prepared in PBS containing 0.5% Nonidet P-40 and 0.5% Na-deoxycholate). The signal in the surfaces reached ˜250 resonance units (RU, 1 RU=1 pg protein/mm²) in the anti-Fc-coated surfaces, confirming that these antibodies specifically capture anti-ST2L mAbs. After 90° rotation of the fluid system, wild type of ST2L-D1D2 or variant proteins (0.5 mg/mL in PBS containing 0.5% Nonidet P-40 and 0.5% Na-deoxycholate) was injected in the parallel flow channels. All of these assays were performed at 25° C. The ST2L-D1D2-dependent signals on the surfaces were obtained by double referencing, subtracting the response observed on surfaces immobilizing the antibodies alone, and the signal observed injecting the vehicle alone (which allows correction for binding-independent responses). The resulting sensorgrams were fitted by the simplest 1:1 interaction model (ProteOn analysis software), to obtain the corresponding association and dissociation rate constants (kₐ and kd).
Residue numbering is according to full length human ST2L of SEQ ID NO: 1.

[5] = target: T4, HH-ST2L (human ST2L Domains I and II), …; test: SPR, ProteOn XPR36, 25 C; mAb captured on anti-Fc surface, ST2L-D1D2 (HH-ST2L) protein injected; 1:1 model
Experimental: as §1

RGA IC50 [1]: 0.61 µg/mL
Kd [2]: 0.011 nM
koff [2]: 6.76e-05 s⁻¹
kon [2]: 5.97e+06 M⁻¹ s⁻¹
Kd [3]: 5 pM
koff [3]: 7.02e-05 s⁻¹
kon [3]: 1.39e+07 M⁻¹ s⁻¹
Kd [4]: ~0.0108 nM
koff [5]: 0.000122 s⁻¹
kon [5]: 1.14e+07 M⁻¹ s⁻¹
B1: STLM208 (antibody, V domains shown)
VH: EVQLLESGGGLVQPGGSLRLSCAASGFTFSIYDMIWVRQAPGKGLEWVSSIRGEGGGTYYADSVKGRFTISRDNSKNTLYLQMNSLRAEDTAVYYCARDPWSTEGSFFVLDYWGQGTLVTVSS
VL: EIVLTQSPATLSLSPGERATLSCRASQSVDDDLAWYQQKPGQAPRLLIYDASNRATGIPARFSGSGSGTDFTLTISSLEPEDFAVYYCQQYITAPLTFGQGTKVEIK
notes: frameworks VH3-23 / Vk-L6
